{
  "source": "patent US20120148657A1",
  "about": "“Lipoxygenase and Its Use in Wound Healing” (priority 2009, published 2012)",
  "molecules": {"B1": {"name": "AmbLOXe: epidermal lipoxygenase from axolotl, Seq. ID. Nos. 1 and 2, EMBL Accession No. EU814616; tested by expression plasmid transfection (protein, listed as Ambystoma mexicanum)", "chain": "MVDEYRIKEDRDLGEILLIRLHKGPFSIFPEDNWYCMYVTVTSPGGVIYHFPCYRWIEGYPTVELAEGTAMLSSASNLHVTLKKQRESDLEQRRKVYRWKVYHPSFPKCIDVANNDELDKDAKYSITKTVHFVINKNVSNIAIKLKGFDGRQESWKSFDELKRVYWTLKTAKSEYVSHHWKEDAFFGYQYLNGPDPTLIKRCNKIPGNFPVTDEMVSYSLGASTSLEKELQKGNIYIVDHKMMEGLRANVLNGKQQYMAAPLCLFYRTPKDEVIPLAIQLNQTPGSETPLFLPSDNEWDWILAKIWVRSTSFAFHQAVSHFLRTHVFAEVFCLATLRQLPMAHPLYKLLVPHLRYTLQINVLARERLIGPGGAFDKNTAVGIAGIAELIKRDMETLKYSTLCLPENLQSREVESLPHFYYRDDGMKIWLAIESYVSGIVDYYYKSEESIQKDPELQAWVAEIFKEGFLERKSSGIPSSLETRVELIKYLTMVIFTCSAEHAAVNSGQFDFLSWMPNGPSTMRQPPPKTKGLATMESVLEALPEVGITTNIMTTVWTLSKEPGDMRPLGTYPDEHFTEEGPKQCIRAFQERLSEISREIEHRNASLPIKYNYMNPKVIENSVSI"}, "B2": {"name": "huLOX: human epidermal lipoxygenase (human 12R LOX) expressed from plasmid phuLOX, comparator (protein, UniProt O75342 1-701, looked up)", "Arachidonate 12-lipoxygenase, …": "MATYKVRVATGTDLLSGTRDSISLTIVGTQGESHKQLLNHFGRDFATGAVGQYTVQCPQDLGELIIIRLHKERYAFFPKDPWYCNYVQICAPNGRIYHFPAYQWMDGYETLALREATGKTTADDSLPVLLEHRKEEIRAKQDFYHWRVFLPGLPSYVHIPSYRPPVRRHRNPNRPEWNGYIPGFPILINFKATKFLNLNLRYSFLKTASFFVRLGPMALAFKVRGLLDCKHSWKRLKDIRKIFPGKKSVVSEYVAEHWAEDTFFGYQYLNGVNPGLIRRCTRIPDKFPVTDDMVAPFLGEGTCLQAELEKGNIYLADYRIMEGIPTVELSGRKQHHCAPLCLLHFGPEGKMMPIAIQLSQTPGPDCPIFLPSDSEWDWLLAKTWVRYAEFYSHEAIAHLLETHLIAEAFCLALLRNLPMCHPLYKLLIPHTRYTVQINSIGRAVLLNEGGLSAKGMSLGVEGFAGVMVRALSELTYDSLYLPNDFVERGVQDLPGYYYRDDSLAVWNALEKYVTEIITYYYPSDAAVEGDPELQSWVQEIFKECLLGRESSGFPRCLRTVPELIRYVTIVIYTCSAKHAAVNTGQMEFTAWMPNFPASMRNPPIQTKGLTTLETFMDTLPDVKTTCITLLVLWTLSREPDDRRPLGHFPDIHFVEEAPRRSIEAFRQRLNQISHDIRQRNKCLPIPYYYLDPVLIENSISI"}},
  "key": {"epithelial Axolotl cells": {"tested_on": "epithelial Axolotl cells", "test": "In vitro wound healing model: proliferation of epithelial cells from Axolotl skin biopsies (Celltiter blue)", "format": "cell-based", "details": "for Epithelial cell proliferation: 1 μM MK-886 and 60 μM NDGA, respectively, plates incubated two days, Celltiter blue fluorescence", "excerpt": "In order to investigate the influence of endogenous lipoxygenase activity on the migration and proliferation of epithelial Axolotl cells, skin biopsies with 2 mm diameter were taken form Axolotl tail skin. The skin biopsies were placed in cell culture dishes coated with bovine collagen I to allow for cell migration and proliferation in an in vitro wound healing model. The wound healing is observable by […] of epithelial cell growing from borders of the skin biopsies. The proliferation rates were determined by addition of Celltiter blue (Promega), an assay for detection of metabolic activity as an indirect measurement of cell proliferation based on Resazurin/Resofurin. Two known lipoxygenase inhibitors for the human lipoxygenase were used to examine the effect of lipoxygenase activity on cell proliferation (1 μM MK-886 and 60 μM NDGA, respectively). […] That is, the plates were incubated for two days to ensure proliferation of epidermal cells. Then, the number of metabolizing cells was determined by Resozuran-Resofurin exchange (Celltiter blue, Promega, Madison, USA). 2 μl Resozuran solution was added to each well for two hours and the fluorescence was read in a multiplate reader at 520 nm. The detected fluorescence was expressed in relative fluorescent units (RFU), means and standard deviation were calculated from triplicates with Microsoft Excel and tested for statistical significance using student's T-test. Experiments were repeated at three independent times to ensure reproducibility."}, "[1]": {"tested_on": "transiently transfected cell populations", "test": "Scratch assay of transiently transfected cell populations treated with lipoxygenase inhibitor", "format": "cell-based, human", "protocol": "(§1) The coding sequence of AmbLOXe was subcloned in frame into the mammalian expression vector pTriEx-1 (Novagen). Plasmids were purified from transformed DH5α using the GenElute plasmid purification Kit (Sigma). Human osteosarcoma cells U2-OS or human spontaneously immortalized keratinocyte cells HaCaT (ATCC) were seeded into 100 mm cell culture dishes and grown over night to 40-50% confluence. Cells were transiently transfected with Fugene6 (Roche, Mannheim, Germany) following the instructions of the manufacturer. Briefly, 18 μl of the reagent were diluted with 600 μl serum-free medium and incubated at room temperature. After 5 min 6 μg of a 1:1 mixture of pTriEx-AmbLOXe and pEGFP-C3 (Clontech), which encodes Green Fluorescent Protein (GFP), were supplemented and incubated for additional 15 min. The transfection complex was added to the cell dishes in a dropwise manner. Cells were incubated for 24 hours before being analyzed for transfection efficiency by detection of GFP positive cells in a flow cytometer (FC-500, Beckman-Coulter, Fullerton, Calif., USA). Only cell populations were used in which about 25% GFP positive cells (U2-OS) or 12% GFP positive cells (HaCaT) could be detected. The cells were seeded into a six well plate until they reached confluence. The monolayer was then wounded with a disposable plastic pipet tip (10 μl-100 μl volume). The cells ere incubated in DMEM High Glucose (Biochrom, Berlin, Germany) supplemented with 10% FCS). The scratches were documented by microphotography and incubated for 16 hours. Then the scratches were again photographed and the remaining areas were measured using CellD (Olympus) software program. All experiments were carried out in quadruplicates and repeated at four independent times. Means and standard deviation were calculated and tested for statistical significance with ANOVA followed by Bonferroni's posthoc test.\nIn order to determine the influence of lipoxygenase inhibitor on the transiently transfected cell populations, cells transfected with empty vector (control) and scratched cell monolayers transfected with vectors containing human 12R LOX and AmbLOXe, respectively, received an overnight treatment with NHGA."}, "U2-OS cells": {"tested_on": "U2-OS cells", "test": "Scratch assay for wound closure in transfected U2-OS cells", "format": "cell-based, human", "details": "for perimeter size of remaining scratch area (mean value): U2-OS cell populations transfected; for perimeter size of remaining scratch area (mean value) / wound closure in scratch assay (FIG. 2): after 16 hours incubation; for scratch width reduction: U2-OS cells transfected with expression plasmid, 16 hours incubation; for wound closure in scratch assay (FIG. 2): U2-OS cells transfected", "excerpt": "To compare the effect of epidermal lipoxygenase of human and Axolotl origin, a human cell line, U2-OS was transfected with expression plasmids encoding for the two types of lipoxygenase (pAmbLOXe, phuLOX) in combination with a vector encoding for GFP (pEGFP-C3, Clontech) as a reporter for transfection efficiency. Controls were transfected with empty vector and pEGFP-C3.\nas §1\nA cDNA fragment coding for full-length AmbLOXe was cloned in frame into the mammalian expression vector pTriEx-1 and transfected together with an expression plasmid for EGFP into the U2-OS cell line to evaluate a possible influence of AmbLOXe expression in a mammalian model system. Only cell populations with a transfection efficiency of about 25% (U2-OS), respectively 12% (HaCaT) were used for all assays and seeded to confluent monolayers which subsequently were wounded with scratches.\nThe remaining scratch areas photographed after 16 hours incubation were used to determine the influence of AmbLOXe expression on mammalian cell migration. While no AmbLOXe expression could be observed in U2-OS cell populations transfected with an empty vector, and in U2-OS cell populations transfected with huLOX, AmbLOXe expression was detected in U2-OS cell populations transfected with AmbLOXe encoding plasmids. A perimeter size reduction to a mean value of 24806.26 μm in the cell populations transfected with an empty vector was found; while cell populations containing AmbLOXe expressing cells and cell populations containing cells expressing human 12R LOX reduced the photographed scratch area to mean values of 517.46 μm and 2086.86 μm, respectively."}, "[2]": {"tested_on": "HaCaT keratinocyte cell line", "test": "HaCaT monolayer scratch assay (cell migration)", "format": "cell-based, human", "details": "HaCaT populations transfected; 16 hours incubation; compared to empty vector (p=0.0035) and huLOX (p=0.028) transfected populations", "protocol": "The coding sequence of AmbLOXe was subcloned in frame into the mammalian expression vector pTriEx-1 (Novagen). Plasmids were purified from transformed DH5α using the GenElute plasmid purification Kit (Sigma). Human osteosarcoma cells U2-OS or human spontaneously immortalized keratinocyte cells HaCaT (ATCC) were seeded into 100 mm cell culture dishes and grown over night to 40-50% confluence. Cells were transiently transfected with Fugene6 (Roche, Mannheim, Germany) following the instructions of the manufacturer. Briefly, 18 μl of the reagent were diluted with 600 μl serum-free medium and incubated at room temperature. […] Cells were incubated for 24 hours before being analyzed for transfection efficiency by detection of GFP positive cells in a flow cytometer (FC-500, Beckman-Coulter, Fullerton, Calif., USA). Only cell populations were used in which about 25% GFP positive cells (U2-OS) or 12% GFP positive cells (HaCaT) could be detected. […] Then the scratches were again photographed and the remaining areas were measured using CellD (Olympus) software program. […] Means and standard deviation were calculated and tested for statistical significance with ANOVA followed by Bonferroni's posthoc test. […]\nAs described for the transfected U2-OS populations cellular migration was determined in HaCaT monolayer scratch assays."}, "[3]": {"tested_on": "Mice having a full thickness skin wound", "test": "Full thickness skin wound animal model (injection of transfected murine embryonic fibroblasts)", "format": "in vivo", "details": "for wound size: compared to human lipoxygenase, empty vector and untreated groups, C57/BR6 female mice; for wound closure (FIG. 5): determined after day 3 and day 7, transfected murine embryonic fibroblasts", "protocol": "That is, murine embryonic fibroblasts were seeded in cell culture dishes to 50% confluence and were transfected with expression plasmids encoding two different types of lipoxygenase (pAmbLOXe, phuLOX), an empty vector was used as control. After 24 hours, the cells were washed and trypsinated. Cells in an amount of 100,000 cells/ml in PBS were resuspended and 200 μl cell suspension was injected into area adjacent to a wound of a full thickness skin wound. Said full thickness skin wound was prepared in advance using mice (C57/BR6 female) where the back was shaved and the skin was disinfected. Thereafter, a full thickness skin wound was set using a 8 mm biopsy punch, resulting in a 50 mm^2 defect. A control group was prepared not treated with any cell suspension. After day 3 and day 7 a photo was taken from the wound and the reduction of wound size was measured and determined statistically."}},
  "data": [
    {"molecule": "CC(C)c1ccc2c(c1)c(SC(C)(C)C)c(CC(C)(C)C(=O)O)n2Cc1ccc(Cl)cc1", "note": "[MK-886]", "values": [
      {"measurement": "Epithelial cell proliferation", "setting": "epithelial Axolotl cells", "value": "significantly reduced"},
      {"measurement": "effect on the Axolotl epithelial cells compared with NDGA", "setting": "epithelial Axolotl cells; treatment of MK-886", "value": "equal effect"}
    ]},
    {"molecule": "CC(Cc1ccc(O)c(O)c1)C(C)Cc1ccc(O)c(O)c1", "note": "(stereo not drawn) [NDGA]", "values": [
      {"measurement": "Epithelial cell proliferation", "setting": "epithelial Axolotl cells", "value": "significantly reduced"}
    ]},
    {"molecule": "CC(Cc1ccc(O)c(O)c1)C(C)Cc1ccc(O)c(O)c1", "note": "(stereo not drawn) [NHGA]", "values": [
      {"measurement": "scratch area (mean value)", "setting": "[1]; cell populations expressing AmbLOXe, overnight treatment with NHGA", "value": 4428.33, "unit": "μm"},
      {"measurement": "migration behaviour compared to the solvent treated monolayers", "setting": "[1]; cells expressing huLOX, overnight treatment with NHGA", "value": "no significant differences"},
      {"measurement": "migration behaviour compared to the solvent treated monolayers", "setting": "[1]; empty vector transfected cells, overnight treatment with NHGA", "value": "no significant differences"}
    ]},
    {"molecule": "B1", "values": [
      {"measurement": "perimeter size of remaining scratch area (mean value)", "setting": "U2-OS cells", "value": 517.46, "unit": "μm"},
      {"measurement": "scratch width reduction", "setting": "U2-OS cells", "value": 89.94, "unit": "%"},
      {"measurement": "wound closure in scratch assay (FIG. 2)", "setting": "U2-OS cells", "value": "substantially completed"},
      {"measurement": "measured wound scratch (mean value)", "setting": "[1]; solvent treated cell populations expressing AmbLOXe", "value": 3388.99, "unit": "μm"},
      {"measurement": "remaining scratch perimeter size", "setting": "[2]", "value": "significantly smaller"},
      {"measurement": "wound size", "setting": "[3]; day 3", "value": "reduced dramatically"},
      {"measurement": "wound size", "setting": "[3]; day 7", "value": "reduced dramatically"},
      {"measurement": "wound closure (FIG. 5)", "setting": "[3]", "value": "significant reduction"}
    ]},
    {"molecule": "B2", "values": [
      {"measurement": "perimeter size of remaining scratch area (mean value)", "setting": "U2-OS cells", "value": 2086.86, "unit": "μm"},
      {"measurement": "scratch width reduction", "setting": "U2-OS cells", "value": 56.75, "unit": "%"},
      {"measurement": "wound closure in scratch assay (FIG. 2)", "setting": "U2-OS cells", "value": "has not finished yet"},
      {"measurement": "wound closure (FIG. 5)", "setting": "[3]", "value": "comparable with the control groups"}
    ]}
  ]
}
